Source: publication PMC3252381, “Trypanosoma cruzi trans-Sialidase in Complex with a Neutralizing Antibody: Structure/Function Studies towards the Rational Design of Inhibitors” (PLoS Pathogens, 2012)

B1: Fab fragment of mAb 13G9 (Fab, V domains shown)
VH: VKLQQSGVELVRPGTSVKMSCKAVGYTFTYDWIGWVKQRPGHGLEWIGDIYLGGGYINYNEKFKGKVILTADTSSSTAYMQLSSLTSEDSAIYYCARGHYDGSYFDYWGQGTTLTVSS
VL: DVLMTQTPTIMSASIGEEITLTCSASSSVSHMHWYQHKSGTSPKLLIYITSYLASGVPSRFSGSGSGTFYSLTISSVEAEDAADYYCHQWSTFPSTFGSGTKLEIK
B2: TS-neutralizing mouse monoclonal antibody 13G9 (IgG2aκ) (antibody, V domains shown)
VH: B1 VH
VL: B1 VL
notes: they are those of the Fab heavy chain in PDB 3OPZ (chain H; also I and J); rest of the mouse IgG2a heavy chain constant region beyond the Fab (hinge, CH2, CH3); the antibody was typed as IgG2aκ; they are those of the Fab light chain in PDB 3OPZ (chain L; also M and N); also called mAb 13G9; 13G9 mAb; source: 13G9 hybridoma culture supernatant; purified (Protein A-Sepharose, MonoQ) or used as …

Legend:
[1] = molecular target: recombinant Trypanosoma cruzi trans-sialidase (construct not stated for these experiments) (Trypanosoma cruzi) (UniProt Q26966)
[2] = molecular target: T1, recombinant Trypanosoma cruzi trans-sialidase (construct not stated for these experiments) (Trypanosoma cruzi, strain  …, UniProt Q26966); experiment: cell-based or functional assay
[3] = molecular target: T1, recombinant Trypanosoma cruzi …; experiment: ITC; raw data not shown; done in the laboratory of Dr. Alan Cooper; conditions not stated; details: both partners purified
[4] = molecular target: T1, recombinant Trypanosoma cruzi …; experiment: SPR; BIAcore 2000; purified mAb 13G9 amine-coupled to a CM5 chip; TS (1 nM to 10 µM) injected at 50 µl/min in HBS-EP (150 mM NaCl, 0.05% P20, 10 mM HEPES pH 7.4); KD calculated from the kinetic constants; apparent; details: both partners purified

Row | Binder | IC50 of inhibition of TS activity (remnant activity of 2 ng TS with sialyllactose and [14C]-lactose, increasing amounts of purified Fab) [1] [nM] | IC50 of inhibition of TS activity (remnant activity of 2 ng TS with sialyllactose and [14C]-lactose, increasing amounts of whole 13G9 IgG) [2] [nM] | Kd [3] [nM] | Kd [4] [nM]
1 | B1 | 1.6 | – | – | –
2 | B2 | – | 0.056 | < 1 | ~0.72
